The record followed here is paper PMC6213480, “A Novel Cold-Adapted Leucine Dehydrogenase from Antarctic Sea-Ice Bacterium Pseudoalteromonas sp. ANT178” (Marine Drugs, 2018).

Some test systems named below: CSCCC(N)C(=O)O; N=C(N)NCCC[C@H](N)C(=O)O; CC(C)C[C@H](N)C(=O)O.
Common to all, as to test: purified protein
Format in all cases: biochemical, Pseudoalteromonas sp. ANT178
Common to all, as to conditions: oxidative deamination with NAD+, standard assay 0.1 M glycine-NaOH pH 10.4, 1 mM NAD+, 30 °C

The subject of data set [1] is N[C@@H](Cc1ccc(O)cc1)C(=O)O.

Usually Km stands for the substrate concentration at which the rate is half of its maximum. For orientation: Vmax means the rate approached at saturating substrate. Usually kcat stands for the number of substrate molecules converted per active site and unit of time at saturation. By kcat/Km is commonly meant the turnover number divided by the Michaelis constant.

Take rPsLeuDH (Pseudoalteromonas sp.): in the data set on CSCCC(N)C(=O)O, the Km was determined as 750 µM, the Vmax came out at 8.38 µmol/min/mg, the kcat stood at 16.6 s⁻¹ and the specificity constant (kcat/Km) came out at 22100 M⁻¹ s⁻¹. In the data set with N=C(N)NCCC[C@H](N)C(=O)O, the Michaelis constant (Km) was determined as 840 µM, the Vmax amounted to 7.13 µmol/min/mg, the kcat worked out at 14.1 s⁻¹ and the kcat/Km came to 16800 M⁻¹ s⁻¹. Further, in data set [1], the Km was 480 µM, the maximum rate (Vmax) was 13.3 µmol/min/mg, the kcat turned out to be 26.4 s⁻¹ and the kcat/Km stood at 55000 M⁻¹ s⁻¹. For the same substance, in the data set on CC(C)C[C@H](N)C(=O)O, the Km amounted to 330 µM, the Vmax stood at 15.2 µmol/min/mg, the kcat came to 30.1 s⁻¹ and the kcat/Km was determined as 91300 M⁻¹ s⁻¹.
